Reference: paper doi:10.1101/2025.05.22.655525 (bioRxiv, 2025)
Where two headings read alike, the source gives them in different places.

B1: human syntenin-1 PDZ tandem (PDZ1-PDZ2), residues 113-273 (domain or fragment, UniProt O00560 113-273, looked up)
chain: REVILCKDQDGKIGLRLKSIDNGIFVQLVQANSPASLVGLRFGDQVLQINGENCAGWSSDKAHKVLKQAFGEKITMTIRDRPFERTITMHKDSTGHVGFIFKNGKITSIVKDSSAARNGLLTEHNICEINGQNVIGLKDSQIADILSTSGTVVTITIMPAF
B2: human syntenin-1 PDZ tandem (PDZ1-PDZ2), residues 113-276 (domain or fragment, UniProt O00560 113-276, looked up)
chain: REVILCKDQDGKIGLRLKSIDNGIFVQLVQANSPASLVGLRFGDQVLQINGENCAGWSSDKAHKVLKQAFGEKITMTIRDRPFERTITMHKDSTGHVGFIFKNGKITSIVKDSSAARNGLLTEHNICEINGQNVIGLKDSQIADILSTSGTVVTITIMPAFIFE

Columns and labels:
crystal structure [1] = biological target: the molecule itself; test: crystal structure
crystal structure [2] = biological target: the molecule itself; test: crystal structure; remark: listed apart in the source

Protein	binding result (crystal structure [1])	binding result (crystal structure [2])
B1	binds	
B2		binds
